Earlier results as cited in patent publication US20160114005A1, “HYBRID PROTEIN THAT CONVERTS ARACHIDONIC ACID INTO PROSTACYCLIN” (UNIVERSITY OF HOUSTON SYSTEM, priority 2006, published 2016).
“And” between values parts separate entries of the source, which are not always exact repeats. Equal entries are not always repeated. Where two headings read alike, the source gives them in different places.

B1: PGIS: Individual prostacyclin synthase enzyme (protein, UniProt Q16647 1-500, looked up)
Prostacyclin synthase: MAWAALLGLLAALLLLLLLSRRRTRRPGEPPLDLGSIPWLGYALDFGKDAASFLTRMKEKHGDIFTILVGGRYVTVLLDPHSYDAVVWEPRTRLDFHAYAIFLMERIFDVQLPHYSPSDEKARMKLTLLHRELQALTEAMYTNLHAVLLGDATEAGSGWHEMGLLDFSYSFLLRAGYLTLYGIEALPRTHESQAQDRVHSADVFHTFRQLDRLLPKLARGSLSVGDKDHMCSVKSRLWKLLSPARLARRAHRSKWLESYLLHLEEMGVSEEMQARALVLQLWATQGNMGPAAFWLLLFLLKNPEALAAVRGELESILWQAEQPVSQTTTLPQKVLDSTPVLDSVLSESLRLTAAPFITREVVVDLAMPMADGREFNLRRGDRLLLFPFLSPQRDPEIYTDPEVFKYNRFLNPDGSEKKDFYKDGKRLKNYNMPWGAGHNHCLGRSYAVNSIKQFVFLVLVHLDLELINADVEIPEFDLSRYGFGLMQPEHDVPVRYRIRP

Molecule | Km (individual COX2, previously characterized by several groups) | Km (individual PGIS, previously characterized by several groups)
COX2: Individual cyclooxygenase isoform-2 enzyme [reference compound] | 6.5 µM and 0.9 µM | –
B1 | – | 13.3 µM and 30 µM and 9.5 µM
